Assay results as given in patent US20240425589A1, “CYTOTOXICITY-INDUCING THERAPEUTIC AGENT FOR USE IN TREATMENT OF CANCER” (CHUGAI SEIYAKU KABUSHIKI KAISHA, priority 2021, published 2024).

Legend:
recombinant cyno CD3eg = biological target: T1, recombinant cyno CD3eg (Macaca fascicularis, UniProt Q95LI5); experiment: Biacore 8K SPR affinity to cyno CD3eg; format: binding, cynomolgus; settings: 25 degree C, pH 7.4
T1 sequence (Q95LI5 22-117 limits assumed): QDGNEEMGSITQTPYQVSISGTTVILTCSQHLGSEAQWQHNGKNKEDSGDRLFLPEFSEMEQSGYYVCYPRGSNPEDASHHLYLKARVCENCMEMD
T1 sequence (Q95LI7 23-115 partner limits assumed): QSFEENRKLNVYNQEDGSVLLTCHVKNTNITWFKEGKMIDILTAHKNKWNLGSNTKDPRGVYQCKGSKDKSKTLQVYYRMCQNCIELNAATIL
Protocol: The binding affinity of the anti-CLDN6/Dual-Fab tri-specific antibody against recombinant human and cyno CD3eg (gamma and epsilon subunits of CD3) at pH 7.4 was determined at 25 degree C. using Biacore 8K instrument (GE Healthcare). The binding affinity of the anti-CLDN6/Dual-Fab tri-specific antibody against recombinant human and cyno CD137 at pH 7.4 was determined at 37 degree C. using Biacore 8K instrument (GE Healthcare). Anti-human Fc (GE Healthcare) antibody was immobilized onto all flow cells of a CM4 sensor chip using amine coupling kit (GE Healthcare). Tested antibody and analytes were prepared in ACES pH 7.4 containing 20 mM ACES, 150 mM NaCl, 0.05% Tween 20, 0.005% NaN3. Anti-CLDN6/Dual-Fab tri-specific antibody was captured onto the sensor surface by anti-human Fc. Antibody capture levels were aimed at 300 resonance unit (RU). Recombinant CD3eg and CD137 were injected at both 500 and 2000 nM, followed by dissociation. Sensor surface was regenerated each cycle with 3M MgCl2. […] Binding affinities were determined by processing and fitting the data to 1:1 binding model using Biacore Insight Evaluation software (GE Healthcare).

CLDN6-LLC1 = CLDN6-LLC1 syngenic model, combination with anti-mouse PD-L1 antibody; format: in vivo, hCD137 KI/hCD3Tg mice; settings: 17 days after transplantation; CS4135 0.2 mg/kg iv day 6, anti-mouse PD-L1 antibody 10 mg/kg ip days 6, 8, 10, 12, 14, 17
Protocol: In this test, lung cancer cell line LLC1 forced to express claudin 6 (CLDN6) (CLDN6-LLC1) and hCD137 KI/hCD3Tg mice (described in the aforementioned Example 7) were used. The CLDN6-LLC1 cell line was transplanted subcutaneously to the right flank of the mice, and the mice were divided into groups 6 days after transplantation. Individuals whose tumor volume reached 104 to 140 mm^3 were divided into groups. The vehicle and the CS4135 antibody were administered into the mouse tail vein 6 days after transplantation. PBS containing 0.05% Tween-20 was used as the vehicle. The vehicle and anti-mouse PD-L1 antibody (BioX cell) were administered intraperitoneally to the mice 6, 8, 10, 12, 14, and 17 days after transplantation.
Tumor volume was measured 6, 10, 12, 14, and 17 days after transplantation, and the average tumor volume was indicated for each group. The tumor volume was calculated by the following equation: […]
(§1) Tumor Growth Inhibition (TGI) was calculated by the following equation: […]

UWB1.289 = experiment: LDH release cytotoxicity on olaparib-treated UWB1.289; format: cell-based; settings: UWB1.289, olaparib 3 μM three days vs DMSO, human PBMC
Protocol: (§2) The effect of the enhanced induction of CLDN6 expression in BRCA1-deficient ovarian cancer cell line UWB1.289, caused by the PARP inhibitor (olaparib), on the cytotoxic activity of anti-CLDN6/Dual-Fab tri-specific antibody CS4135 was assessed.
(§3) BRCA1-deficient ovarian cancer cell line UWB1.289 (ATCC) or BRAC1 wildtype ovarian cancer cell line OV-90 (ATCC) which express human CLDN6 were used as target cells.
(§4) Each target cell (3×10^5 cells) were seeded at 5 mL into a 25 cm^2-flask. Two flasks were prepared for each target cell. After culturing overnight, olaparib was added at a final concentration of 3 μM to one of the two flasks. DMSO was added to the other flask. After incubating the flasks for three days, the target cells were recovered, and the cytotoxic activity of the CS4135 antibody was evaluated by […] (LDH) release assay using human PBMC as the effector cell.

[1] = Single dose toxicology study; format: in vivo, cynomolgus monkey
Protocol: Potential toxicity of PPU4135 antibody (anti-CLDN6/Dual-Fab tri-specific antibody) was evaluated in toxicity study using cynomolgus monkeys compared with CS3348 antibody (anti-CLDN6/CD3 bispecific antibody). Because both PPU4135 and CS3348 antibodies cross-reacted with their antigens of cynomolgus monkey, cynomolgus monkey was selected as the animal species for evaluations in the in vivo toxicology studies. Since toxicological findings seemed to be more sensitive in male than female animals in the toxicity study with CS3348 (FIG. 14), 2 males were used for evaluation of the PPU4135-mediated toxicity. In these studies, dose levels were set at 100 (for CS3348) or 90 (for PPU4135) micro g/kg, which were approximately 2.57-fold efficacious concentration producing 80% of the maximal response.

OV-90 = experiment: LDH release cytotoxicity on olaparib-treated OV-90; format: cell-based; settings: OV-90, olaparib 3 μM three days vs DMSO, human PBMC
Protocol: as §2, §3, §4

OVCAR3 = OVCAR3 xenograft in huNOG mice, combination with carboplatin; format: in vivo; settings: 56 days after transplantation; CS4135 0.1 mg/kg iv days 38, 45 (sequential: 48, 55), carboplatin 60 mg/kg ip days 38, 45
Protocol: In this test, NOG (huNOG) mice (described in the aforementioned Example 13) transplanted with ovarian cancer cell line OVCAR3 and human CD34-positive cells were used. The OVCAR3 cell line was transplanted subcutaneously to the right flank of the mice, and the mice were divided into groups 38 days after transplantation. Individuals whose tumor volume reached 119 to 210 mm^3 were divided into groups. Vehicle 1 and CS4135 were administered into the mouse tail vein 38 and 45 days after transplantation. PBS containing 0.05% Tween-20 was used as Vehicle 1. Vehicle 2 and carboplatin (Bristol Myers Squibb Company) were administered intraperitoneally to the mice 38 and 45 days after transplantation. Physiological saline was used as Vehicle 2.
Tumor volume was measured 38, 42, 45, 48, 52, and 56 days after transplantation, and the average tumor volume was indicated for each group. The tumor volume was calculated by the following equation: […]
as §1

B1: PPU4135: anti-CLDN6/Dual-Fab tri-specific antibody, chains SEQ ID NOs 42, 51, 56, 69; CS4135 same antibody (protein)
chain 1: QVQLVESGGGVVQPGGSLRLSCAASGFTFSSYTMSWVRQAPGQGLEWMGTISSGGGRTYYPDSVKGRFTISRDNSKNTLYLQMNSLRDEDTAVYYCARGDYRYDGFAYWGEGTLVTVSSASTKGPSVFPLAPSSKSTSGGTAALGCLVEDYFPEPVTVSWNSGALTSGVHTFPAVLESSGLYSLSSVVTVPSSSLGTQTYICNVNHKPSNTKVDKRVEPKSCDKTHTCPPCPAPEAAGGPSVFLFPPKPKDTLMISRTPEVTCVVVDVSHEDPEVKFNWYVDGVEVHNAKTKPREEQYASTYRVVSVLTVLHQDWLNGKEYKCKVSNKALPAPIEKTISKAKGQPREPQVYTLPPSREEMTKNQVSLTCLVKGFYPSDIAVEWESNGQPENNYKTTPPVLDSDGSFFLYSKLTVDKSRWQQGNVFSCSVMHEALHNHYTQESLSLSP
chain 2: DIQMTQSPSSLSASVGDRVTITCRASYNIDSYLAWYQQKPGKAPELLIYYSTLLVDGVPDRFSGSRSGTDFTLTISSLQPEDFATYYCQHYYSIPYTFGQGTKVEIERTVAAPSVFIFPPSDEQLKSGTAKVVCLLNNFYPREAKVQWKVDNALQSGNSKESVTEQDSKDSTYSLSSTLTLSKADYEKHKVYACEVTHQGLSSPVTKSFNRGEC
chain 3: QVQLVESGGGLVQPGRSLRLSCAASGFKFSNVWFHWVRQAPGKGLEWVAQIKDYYNAYAAYYAPSVKGRFTISRDDSKNSIYLQMNSLKTEDTAVYYCHYVHYASASTLLPAEGVDAWGQGTTVTVSSASTKGPSVFPLAPSSKSTSGGTAALGCLVKDYFPEPVTVSWNSGALTSGVHTFPAVLKSSGLYSLSSVVTVPSSSLGTQTYICNVNHKPSNTKVDKRVEPKSCDKTHTCPPCPAPEAAGGPSVFLFPPKPKDTLMISRTPEVTCVVVDVSHEDPEVKFNWYVDGVEVHNAKTKPREEQYASTYRVVSVLTVLHQDWLNGKEYKCKVSNKALPAPIEKTISKAKGQPREPQVYTLPPSRKEMTKNQVSLTCLVKGFYPSDIAVEWESNGQPENNYKTTPPVLDSDGSFFLYSKLTVDKSRWQQGNVFSCSVMHEALHNHYTQKSLSLSP
chain 4: DIVMTQSPLSLPVTPGEPASISCQPSQEVVHMNRNTYLHWYQQKPGQAPRLLIYKVSNRFPGVPDRFSGSGSGTDFTLKISRVEAEDVGVYYCAQGTSHPFTFGQGTKLEIKRTVAAPSVFIFPPSDEQLKSGTAEVVCLLNNFYPREAKVQWKVDNALQSGNSEESVTEQDSKDSTYSLSSTLTLSKADYEKHKVYACEVTHQGLSSPVTKSFNRGEC
ka (recombinant cyno CD3eg): 101000 M⁻¹ s⁻¹ | kd (recombinant cyno CD3eg): 0.0332 s⁻¹ | Tumor growth inhibition: TGI (CLDN6-LLC1): 71% | cytotoxic activity after addition of olaparib (UWB1.289): enhancement of cytotoxicity | hepatobiliary damage parameters and inflammatory marker elevations ([1]; PPU4135 90 micro g/kg compared with CS3348 100 micro g/kg): dramatically mitigated | AST, ALT, GLDH, ALP, TBIL, GGT, TBA and CRP ([1]; male animals, after single IV administration): Increased | plasma exposure levels ([1]; male animals, until Day 8, PPU4135 90 vs CS3348 100 micro g/kg single IV): comparable | cytotoxic activity after addition of olaparib (OV-90): no effect on cytotoxic activity | Tumor growth inhibition: TGI (OVCAR3): 18%
